This passage reports amyloid nucleation score results from the supplement of paper PMC12042874.

± gives the uncertainty stated by the source.

The series is described as follows: amyloid nucleation score (Sup35N fusion, yeast selection) (log enrichment); library NNK2; higher = more nucleation; inactive = no reads after selection. A digest of the protocol:
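Peptides of 20 random codons, each fused to Sup35N, were expressed in psi-negative yeast. Cells were induced with 100 μM copper sulfate for 24 hours and grown 7 days at 30°C on medium lacking adenine and uracil, and plasmid inserts before and after selection were Illumina-sequenced. Nucleation scores are DiMSum log enrichments of output over input reads, centred on the mode score of non-aggregating sequences, and sequences under 100 input reads were excluded.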
The substance RVFNLNKKMNFSTISG showed an amyloid nucleation score of -0.942 ± 1.1.
As for RVIQLQKVTHWW, the figure is 2.72 ± 0.078; as for RVLKFFYGLTRVVS, 1.23 ± 0.12.
RVLREKCSIGVAGKYSY showed an amyloid nucleation score of -0.512 ± 0.49.
RVMFYVINEVWDMNSARTNT yielded an amyloid nucleation score of 6.38 ± 0.08.
As for RVMMLEGQASNMAYEEL, the amyloid nucleation score came to 0.274 ± 1.1.
For the substance RVNEMWIQI, the amyloid nucleation score is -0.138 ± 0.76.
RVNTLLHILMYFNCLSGVEL yielded an amyloid nucleation score of 4.88 ± 0.049.
For RVRKNCRFWSNCSCIVMVGR, the amyloid nucleation score was determined as 5.07 ± 0.059.
The substance RVRSGKKHDW displayed an amyloid nucleation score of 1.01 ± 0.14.
Consider RVSCNRVRVYCWLVWRLIPN, for which the amyloid nucleation score result was “inactive”.
In turn, RVSRRCVYWRRQGHWAIFGQ returned an amyloid nucleation score of 0.098 ± 1.
As to RVTFSLWFADFIQNNLLKK, the amyloid nucleation score is 0.158 ± 0.5.
As for RVTNLIHQLRVPKIGKSGFA, the amyloid nucleation score worked out at 0.294 ± 0.23.
In turn, RVVQPKFMLGVQYSAIQFNS gave an amyloid nucleation score of 2.47 ± 0.089.
In the case of RWATAKRI, the amyloid nucleation score worked out at 0.194 ± 0.49.
For the substance RWCQE, the amyloid nucleation score is -0.288 ± 0.53.
RWCSSYRYIHSGGRNASGSF came in with an amyloid nucleation score of -0.108 ± 0.8.
Turning to RWDCLQLLISSCFFDMDGCG, the amyloid nucleation score was -0.668 ± 0.64.
In turn, RWHLFSITYLKVLDWDCCLW returned an amyloid nucleation score of 5.45 ± 0.034.
Regarding RWLTGMLDVVPYTFCEEV, the amyloid nucleation score entry was “inactive”.
RWPNLSDAQVWAPTSQLLSS yielded an amyloid nucleation score of 0.92 ± 0.32.
As for RYALFSARIYSLYWLWFCIF, the entry is “inactive”; as for RYFRATPKVCRLH, 0.175 ± 0.26; as for RYGRRSYLPAIIRCARCLDE, 6.56 ± 0.066.
In the case of RYGVRTSAPNMQWLFAGWS it was 0.613 ± 0.74; in that of RYHSRAWAPYCTTHATVPEV, 1.28 ± 0.29; in that of RYNIVLGRLL, “inactive”.
In turn, RYNRN showed an amyloid nucleation score of -0.195 ± 0.36.
RYRHLTFLVFCIAVPVGFWR gave an amyloid nucleation score of 2.04 ± 0.14.
RYSITGTYYIA: the amyloid nucleation score was 3.63 ± 0.057.
In the case of RYSRFSDQSMFSRPYA it was 0.333 ± 0.31; in that of RYTSVYSGRSENG, “inactive”; in that of RYYLNL, 3.83 ± 0.091.
With SADRRQGITRFGTFNGGVRS, the amyloid nucleation score amounted to 0.481 ± 0.24.
In the case of SAIKYIGILAMRDQDQASQI, the amyloid nucleation score was -1.59 ± 0.62.
Regarding SAMLDRFYGVRFTMFCRAEH, the amyloid nucleation score came out at 0.299 ± 0.61.
In the case of SARWYILRVFIFFIPRSAYK it was -1.59 ± 0.76; in that of SASVHYHYDMK, 0.268 ± 0.62; in that of SCDIKCWCQ, 3.41 ± 0.079.
With SCFTLSFKVITLHSRLQFIW, the amyloid nucleation score is 0.181 ± 0.35.
SCIMECM had an amyloid nucleation score of -0.108 ± 1.1.
On to SCLYSSRPSMLGTIYRRMRC, for which the amyloid nucleation score was 0.163 ± 0.34.
In turn, SCNPRKNGSQCCGMNLSLSV gave an amyloid nucleation score of 0.808 ± 0.8.
In turn, SCSRWHYESSYLYIDTLEDY registered an amyloid nucleation score of 0.347 ± 0.55.
Substance SCSVCWSLSMV returned an amyloid nucleation score of 1.31 ± 0.36.
In the case of SCSWLLSEIGCESVEIRRTV it was 5.51 ± 0.082.
Turning to SCYLALKFTFRLFVLKSEGL, the amyloid nucleation score was -0.202 ± 1.
SDDLCHCIFGVVPGKSFPTM: the amyloid nucleation score entry was “inactive”.
Consider SDGQGHYVIQRTLWVTWSFR, for which the amyloid nucleation score was -0.707 ± 0.76.
As for SDGVNIMK, the amyloid nucleation score was 2.83 ± 0.18.
As for SDINRVVGLPRTRLALRSKR, the figure is -0.447 ± 0.54; as for SDLSKKSLLKVLMAS, -0.375 ± 1.1.
As to SDPKLFCAIKAGNTQLGVES, the amyloid nucleation score came to 0.634 ± 0.54.
On to SDRQHNAYNFLFVL, for which the amyloid nucleation score amounted to 4.6 ± 0.051.
SDTGGSVYMKTVGRTHLTYD: the amyloid nucleation score was -0.252 ± 0.25.
Substance SEAKGYLIWGFLWLFGYDFE returned an amyloid nucleation score of -0.802 ± 0.63.
The substance SECFRLSLRKGCNTNQVRNT had an amyloid nucleation score of -0.989 ± 0.63.
As for SEENYGRYLAMEVYNYSQAL, the entry is “inactive”; as for SEFYIRLQYNNVVIVDLFEV, -0.701 ± 0.63.
As for SERTLNLRSKSSPHPCST, the figure is 3.86 ± 0.12; as for SETYTLIRARYIMV, -1.24 ± 0.75.
Take SEWSTYLCSSNI: the amyloid nucleation score entry was “inactive”.
The substance SEYALYAFE returned an amyloid nucleation score of -0.173 ± 0.25.
Take SFAHEDWHTLFLL: the amyloid nucleation score was -1.32 ± 0.75.
Consider SFAIIS, for which the amyloid nucleation score is 0.077 ± 0.65.
Take SFCMPGISLFLVFRQTDGHM: the amyloid nucleation score result is “inactive”.
For the substance SFDTCRSLIRLYHVPPRTVL, the amyloid nucleation score is -0.276 ± 0.61.
As to SFFPS, the amyloid nucleation score was -0.301 ± 0.45.
SFFVIGW returned an amyloid nucleation score of 0.102 ± 0.17.
In the case of SFINVLDQRVILRPPTRVFV it was 0.494 ± 0.65; in that of SFIVRRFSSCLHLFGDSEGY, -0.098 ± 0.41; in that of SFLMCGHWIACALTMMVMFQ, 0.896 ± 0.58.
SFLRSTSRDPKGCVKMRYFT yielded an amyloid nucleation score of 1.17 ± 0.2.
Consider SFNDESGFLLSSGYPISFKR, for which the amyloid nucleation score result is “inactive”.
The substance SFNRS registered an amyloid nucleation score of 0.87 ± 0.31.
On to SFRLISRVLRCNMIQ, for which the amyloid nucleation score was -0.881 ± 0.37.
Substance SFRSMIQQSAAGFYSSFIST displayed an amyloid nucleation score of -1.89 ± 1.1.
SFSRSGFCHMCSLSALTGLR came in with an amyloid nucleation score of -0.196 ± 1.1.
With SFVDMSYRFLVGVRFLVRPS, the amyloid nucleation score result was “inactive”.
SFVTCCVSCGWRGQIHAEKL had an amyloid nucleation score of 6.78 ± 0.073.
SFWLTMMCNVGTMALVLSNL: the amyloid nucleation score is -0.065 ± 0.31.
In the case of SGEGRLLVRWALVKVTEEKL it was 0.907 ± 0.58; in that of SGGHKWVYFASCISFLRPWR, -0.069 ± 0.55; in that of SGIADEMGSRLTRKLVNRFY, -0.466 ± 0.55.
Substance SGRCNSN displayed an amyloid nucleation score of -0.63 ± 0.79.
Consider SGSGNLFA, for which the amyloid nucleation score is -0.545 ± 0.45.
In the case of SGSVLFGRVYRRRFLFWVVD, the amyloid nucleation score entry was “inactive”.
Take SGTRYYPSWIFGFLVVCKG: the amyloid nucleation score was -0.404 ± 0.64.
Substance SGVKLYRLRRLCLFSRGKFA had an amyloid nucleation score of 4.09 ± 0.12.
As for SGVWSSKSLYGKRGNSWIVV, the figure is 0.053 ± 0.23; as for SGYQGKYRSMSPRFKFSWVG, -0.392 ± 0.63.
With SHCCFLG, the amyloid nucleation score is 0.118 ± 0.51.
As for SHFCVVCEYTLVSSYHR, the figure is 5.09 ± 0.09; as for SHGCGHRL, -0.051 ± 0.79.
As for SHLCQVLVVLGGASTV, the figure is 6.41 ± 0.077; as for SHLKMDNPCLGF, -0.121 ± 0.25; as for SHQWLRRLPWVI, 0.528 ± 0.44.
In the case of SHRFADILDCV it was 0.518 ± 0.24.
In turn, SHTITSGWCAGWIGFSPICR came in with an amyloid nucleation score of 0.932 ± 0.32.
For the substance SIARHFRGFV, the amyloid nucleation score turned out to be 0.734 ± 0.47.
Substance SIAWRLEFIVDDGVLFRCKS registered an amyloid nucleation score of -0.563 ± 0.35.
With SIFFNRASCLRRV, the amyloid nucleation score entry was “inactive”.
In the case of SIFHGWARWKGFG it was -0.258 ± 0.48.
Turning to SIFSKYCF, the amyloid nucleation score was -0.464 ± 0.5.
With SIGVSDGNPGRAVGGGLMGH, the amyloid nucleation score turned out to be 0.098 ± 0.49.
SIKVRMGEARVMNLVNTLGV: the amyloid nucleation score result is “inactive”.
In the case of SILGGVKSLRNIKLFSVWLA it was -0.569 ± 0.79; in that of SILGVCSRLSYVRSVTFQGV, 0.998 ± 0.61.
The substance SILLYKFK displayed an amyloid nucleation score of 1.54 ± 0.12.
For SIPSCCWSLMGFNIIELDDG, the amyloid nucleation score was determined as 0.173 ± 1.1.
On to SIRSLMGVRSKNSYCRLTVR, for which the amyloid nucleation score worked out at 0.011 ± 0.79.
SISAKFSSTSWGGG displayed an amyloid nucleation score of 6.444 ± 0.046.
The substance SISGHSWTKCVRVHYALIYG came in with an amyloid nucleation score of 1.07 ± 0.38.
As for SISSLLLRLRGTV, the amyloid nucleation score is -0.305 ± 0.79.
Substance SISVKGLSGRLTVRYLLILV gave an amyloid nucleation score of -0.669 ± 1.
SISWVVYSTV gave an amyloid nucleation score of 2.1 ± 0.084.
For the substance SITAIYESLNRRRNLKFKYC, the amyloid nucleation score result was “inactive”.
The substance SIVLSDGLGS yielded an amyloid nucleation score of 0.044 ± 1.1.
In the case of SKARGLCFLSVLLFISDQST it was -1.78 ± 1.1; in that of SKCWESREQGYMYMEWGFEG, 0.219 ± 1; in that of SKEVAAGCSLGIRVVMFKR, “inactive”.
In the case of SKFDLYAKFMIRINRLFVLW, the amyloid nucleation score was -1.59 ± 0.41.
As for SKGSGICRRISTEYDGVGQS, the figure is 0.6 ± 0.42.
As for SLADS, the figure is -0.802 ± 0.63; as for SLAQDVRGYGLCNGKTNIVW, -0.867 ± 0.35.
With SLATSAWVVYLWFVVRDIVV, the amyloid nucleation score was 0.388 ± 0.33.
In the case of SLAWARISGVVAICTVGRGF, the amyloid nucleation score was 7.44 ± 0.032.
For the substance SLCEFMREGCLLTYWFNKCE, the amyloid nucleation score was -0.838 ± 0.64.
On to SLCGRRFNTDEPLLETRSSL, for which the amyloid nucleation score was 0.817 ± 0.51.
Substance SLDGGPAVVEEATFRGSMAF gave an amyloid nucleation score of -0.567 ± 1.1.
Consider SLELA, for which the amyloid nucleation score was determined as 0.472 ± 0.8.
In the case of SLETFNVTPCRDVT, the amyloid nucleation score was -0.633 ± 1.1.
As for SLFYPLFLMLGVAYEGSFSW, the figure is -1.1 ± 0.61.
Regarding SLFYVTLAPTSWICGTARC, the amyloid nucleation score was found to be 1.43 ± 0.41.
The substance SLISKEFVGLVGGET had an amyloid nucleation score of -0.388 ± 0.25.
Turning to SLKCDCYFSTGHI, the amyloid nucleation score entry is “inactive”.
Take SLKEIECFSQ: the amyloid nucleation score entry is “inactive”.
As for SLLGLNFCSMLAIL, the figure is 3.23 ± 0.075; as for SLLNTGRYCWC, 1.05 ± 0.35.
